Among the data in patent US20100169988A1 (published 2010) are iTRAQ ratio values, retold here.

This assay addresses APP-TAP-AICD (human, UniProt P05067 18-695). The assay can be described thus: streptavidin purification of APP-TAP-AICD from brain homogenate; iTRAQ 116/114, transgenic mouse 75 vs control mouse 72; MALDI-TOF/TOF.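 Note: relative protein abundance in the transgenic versus control pull-down, limited to proteins with high quality scores and above-average enrichment, without full normalization across the whole measurement.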

Text: Shown are all proteins that have high quality scores and are enriched above average in the m75 sample. Purified bait protein is given underlined. Other already known interaction partners of AICD or putatively biologically relevant proteins are given in bold. As full normalization over the entire measurement was not possible through the GPS explorer software suite, this conservative estimate had to be taken for determining the enriched vs. the non-enriched proteins. […] Ranking is in order of abundance ratio.

B1: Synaptotagmin-1 (Synaptotagmin I) (SytI) (p65) (other, mouse, UniProt P46096 1-421, looked up)
chain: MVSASRPEALAAPVTTVATLVPHNATEPASPGEGKEDAFSKLKQKFMNELHKIPLPPWALIAIAIVAVLLVVTCCFCVCKKCLFKKKNKKKGKEKGGKNAINMKDVKDLGKTMKDQALKDDDAETGLTDGEEKEEPKEEEKLGKLQYSLDYDFQNNQLLVGIIQAAELPALDMGGTSDPYVKVFLLPDKKKKFETKVHRKTLNPVFNEQFTFKVPYSELGGKTLVMAVYDFDRFSKHDIIGEFKVPMNTVDFGHVTEEWRDLQSAEKEEQEKLGDICFSLRYVPTAGKLTVVILEAKNLKKMDVGGLSDPYVKIHLMQNGKRLKKKKTTIKKNTLNPYYNESFSFEVPFEQIQKVQVVVTVLDYDKIGKNDAIGKVFVGYNSTGAELRHWSDMLANPRRPIAQWHTLQVEEEVDAMLAVKK
notes: also called SYT1_MOUSE
Take B1: the iTRAQ ratio was 3.82.

B2: L-lactate dehydrogenase B chain (LDH-B) (LDH heart subunit) (enzyme)
chain: not shown
On to B2, for which the iTRAQ ratio was determined as 3.99.

B3: ATP synthase gamma chain; mitochondrial precursor (enzyme, mouse, UniProt Q91VR2 26-298, looked up)
chain: ATLKDITRRLKSIKNIQKITKSMKMVAAAKYARAERELKPARVYGTGSLALYEKADIKAPEDKKKHLIIGVSSDRGLCGAIHSSVAKQMKNEVAALTAAGKEVMIVGVGEKIKGILYRTHSDQFLVSFKDVGRKPPTFGDASVIALELLNSGYEFDEGSIIFNQFKSVISYKTEEKPIFSLNTIATAETMSIYDDIDADVLQNYQEYNLANLIYYSLKESTTSEQSARMTAMDNASKNASDMIDKLTLTFNRTRQAVITKELIEIISGAAALD
For the molecule B3, the iTRAQ ratio was 3.98.

B4: Creatine kinase; B chain (enzyme)
chain: not shown
With B4, the iTRAQ ratio came to 5.32.

B5: Pyruvate kinase; isozyme M2 (enzyme)
chain: not shown
notes: also called pyruvate kinase isozyme M1/2
Regarding B5, the iTRAQ ratio is 4.71.

B6: Alpha enolase (2-phospho-D-glycerate hydro-lyase) (Non-neural enolase) (NNE) (enzyme, mouse, UniProt P17182 2-434, looked up)
chain: SILRIHAREIFDSRGNPTVEVDLYTAKGLFRAAVPSGASTGIYEALELRDNDKTRFMGKGVSQAVEHINKTIAPALVSKKVNVVEQEKIDKLMIEMDGTENKSKFGANAILGVSLAVCKAGAVEKGVPLYRHIADLAGNPEVILPVPAFNVINGGSHAGNKLAMQEFMILPVGASSFREAMRIGAEVYHNLKNVIKEKYGKDATNVGDEGGFAPNILENKEALELLKTAIAKAGYTDQVVIGMDVAASEFYRSGKYDLDFKSPDDPSRYITPDQLADLYKSFVQNYPVVSIEDPFDQDDWGAWQKFTASAGIQVVGDDLTVTNPKRIAKAASEKSCNCLLLKVNQIGSVTESLQACKLAQSNGWGVMVSHRSGETEDTFIADLVVGLCTGQIKTGAPCRSERLAKYNQILRIEEELGSKAKFAGRSFRNPLAK
In the case of B6, the iTRAQ ratio was 3.9.

B7: Ubiquitin carboxyl-terminal hydrolase isozyme L1 (UCH-L1) (enzyme, mouse, UniProt Q9R0P9 1-220, looked up)
chain: MQLKPMEINPEMLNKVLAKLGVAGQWRFADVLGLEEETLGSVPSPACALLLLFPLTAQHENFRKKQIEELKGQEVSPKVYFMKQTIGNSCGTIGLIHAVANNQDKLEFEDGSVLKQFLSETEKLSPEDRAKCFEKNEAIQAAHDSVAQEGQCRVDDKVNFHFILFNNVDGHLYELDGRMPFPVNHGASSEDSLLQDAAKVCREFTEREQGEVRFSAVALC
notes: also called UCHL1_MOUSE
With B7, the iTRAQ ratio came to 4.68.

B8: Malate dehydrogenase; cytoplasmic (enzyme, mouse, UniProt P14152 2-334, looked up)
chain: SEPIRVLVTGAAGQIAYSLLYSIGNGSVFGKDQPIILVLLDITPMMGVLDGVLMELQDCALPLLQDVIATDKEEIAFKDLDVAVLVGSMPRREGMERKDLLKANVKIFKSQGTALEKYAKKSVKVIVVGNPANTNCLTASKSAPSIPKENFSCLTRLDHNRAKSQIALKLGVTADDVKNVIIWGNHSSTQYPDVNHAKVKLQGKEVGVYEALKDDSWLKGEFITTVQQRGAAVIKARKLSSAMSAAKAIADHIRDIWFGTPEGEFVSMGVISDGNSYGVPDDLLYSFPVVIKNKTWKFVEGLPINDFSREKMDLTAKELTEEKETAFEFLSSA
With B8, the iTRAQ ratio was 5.96.

B9: Excitatory amino acid transporter 2 (Sodium-dependent glutamate/aspartate transporter 2) (other, mouse, UniProt P43006 1-572, looked up)
chain: MASTEGANNMPKQVEVRMHDSHLSSDEPKHRNLGMRMCDKLGKNLLLSLTVFGVILGAVCGGLLRLASPIHPDVVMLIAFPGDILMRMLKMLILPLIISSLITGLSGLDAKASGRLGTRAMVYYMSTTIIAAVLGVILVLAIHPGNPKLKKQLGPGKKNDEVSSLDAFLDLIRNLFPENLVQACFQQIQTVTKKVLVAPPSEEANTTKAVISMLNETMNEAPEETKIVIKKGLEFKDGMNVLGLIGFFIAFGIAMGKMGEQAKLMVEFFNILNEIVMKLVIMIMWYSPLGIACLICGKIIAIKDLEVVARQLGMYMITVIVGLIIHGGIFLPLIYFVVTRKNPFSFFAGIFQAWITALGTASSAGTLPVTFRCLEDNLGIDKRVTRFVLPVGATINMDGTALYEAVAAIFIAQMNGVILDGGQIVTVSLTATLASIGAASIPSAGLVTMLLILTAVGLPTEDISLLVAVDWLLDRMRTSVNVVGDSFGAGIVYHLSKSELDTIDSQHRMQEDIEMTKTQSIYDDKNHRESNSNQCVYAAHNSVVIDECKVTLAANGKSADCSVEEEPWKREK
notes: also called EAA2_MOUSE; GLT-1
For the molecule B9, the iTRAQ ratio worked out at 4.44.

B10: Phosphate carrier protein; mitochondrial precursor (PTP) (other, mouse, UniProt Q8VEM8 46-357, looked up)
chain: AVEEYSCEFGSMKYYALCGFGGVLSCGLTHTAVVPLDLVKCRMQVDPQKYKGIFNGFSITLKEDGVRGLAKGWAPTLIGYSMQGLCKFGFYEVFKALYSNILGEENTYLWRTSLYLASSASAEFFADIALAPMEAAKVRIQTQPGYANTLREAVPKMYKEEGLNAFYKGVAPLWMRQIPYTMMKFACFERTVEALYKFVVPKPRSECTKAEQLVVTFVAGYIAGVFCAIVSHPADSVVSVLNKEKGSTASQVLQRLGFRGVWKGLFARIIMIGTLTALQWFIYDSVKVYFRLPRPPPPEMPESLKKKLGLTE
As for B10, the iTRAQ ratio was determined as 4.61.

B11: Glyceraldehyde-3-phosphate dehydrogenase (GAPDH) (enzyme)
chain: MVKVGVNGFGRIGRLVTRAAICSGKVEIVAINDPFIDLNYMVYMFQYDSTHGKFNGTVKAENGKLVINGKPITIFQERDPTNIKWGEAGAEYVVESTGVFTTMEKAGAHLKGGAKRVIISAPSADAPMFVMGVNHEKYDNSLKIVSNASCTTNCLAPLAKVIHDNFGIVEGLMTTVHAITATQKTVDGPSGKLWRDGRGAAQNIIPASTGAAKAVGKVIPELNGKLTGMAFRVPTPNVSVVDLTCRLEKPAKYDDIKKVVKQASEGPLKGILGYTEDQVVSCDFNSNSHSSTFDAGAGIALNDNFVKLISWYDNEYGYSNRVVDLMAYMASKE
On to B11, for which the iTRAQ ratio was 4.54.

B12: Clathrin light chain A (Lca) (other, mouse, UniProt O08585 1-235, looked up)
chain: MAELDPFGAPAGAPGGPALGNGVAGAGEEDPAAAFLAQQESEIAGIENDEAFAILDGGAPGRATRRAAGGPDAVDGVMNGEYYQESNGPTDSYAAISEVDRLQSEPESIRKWREEQTERLEALDANSRKQEAEWKEKAIKELEEWYARQDEQLQKTKANNRVADEAFYKQPFADLIGYVAAEEAFVNDIDESSPGTEWERVARLCDFNPKSSKQAKDVSRMRSVLISLKQAPLVH
In the case of B12, the iTRAQ ratio stood at 3.98.

B13: Triosephosphate isomerase (TIM) (Triose-phosphate isomerase) (enzyme, mouse, UniProt P17751 2-249, looked up)
chain: APTRKFFVGGNWKMNGRKKCLGELICTLNAANVPAGTEVVCAPPTAYIDFARQKLDPKIAVAAQNCYKVTNGAFTGEISPGMIKDLGATWVVLGHSERRHVFGESDELIGQKVSHALAEGLGVIACIGEKLDEREAGITEKVVFEQTKVIADNVKDWSKVVLAYEPVWAIGTGKTATPQQAQEVHEKLRGWLKSNVNDGVAQSTRIIYGGSVTGATCKELASQPDVDGFLVGGASLKPEFVDIINAKQ
Turning to B13, the iTRAQ ratio is 4.61.

B14: Aspartate aminotransferase; cytoplasmic (Transaminase A) (enzyme, mouse, UniProt P05201 2-413, looked up)
chain: APPSVFAQVPQAPPVLVFKLTADFRDDPDPRKVNLGVGAYRTDESQPWVLPVVRKVEQKIANDNSLNHEYLPILGLAEFRSCASRLVLGDNSLAIRENRVGGVQSLGGTGALRIGADFLGRWYNGTDNKNTPIYVSSPTWENHNAVFSAAGFKDIRPYCYWDAEKRGLDLQGFLNDLENAPEFSIFVLHACAHNPTGTDPTPEQWKQIAAVMQRRFLFPFFDSAYQGFASGDLEKDAWAIRYFVSEGFELFCAQSFSKNFGLYNERVGNLTVVGKESDSVLRVLSQMEKIVRITWSNPPAQGARIVAATLSDPELFKEWKGNVKTMADRILTMRSELRARLEALKTPGTWSHITEQIGMFSFTGLNPKQVEYLVNEKHIYLLPSGRINMCGLTTKNLDYVATSIHEAVTKIQ
B14: the iTRAQ ratio is 4.04.
